The numbers were not newly measured in publication PMC7677405, which cites them from elsewhere.

The series addresses insulin receptor (Homo sapiens) (UniProt P06213).
Sequence of UniProt P06213 (P06213 763-1382): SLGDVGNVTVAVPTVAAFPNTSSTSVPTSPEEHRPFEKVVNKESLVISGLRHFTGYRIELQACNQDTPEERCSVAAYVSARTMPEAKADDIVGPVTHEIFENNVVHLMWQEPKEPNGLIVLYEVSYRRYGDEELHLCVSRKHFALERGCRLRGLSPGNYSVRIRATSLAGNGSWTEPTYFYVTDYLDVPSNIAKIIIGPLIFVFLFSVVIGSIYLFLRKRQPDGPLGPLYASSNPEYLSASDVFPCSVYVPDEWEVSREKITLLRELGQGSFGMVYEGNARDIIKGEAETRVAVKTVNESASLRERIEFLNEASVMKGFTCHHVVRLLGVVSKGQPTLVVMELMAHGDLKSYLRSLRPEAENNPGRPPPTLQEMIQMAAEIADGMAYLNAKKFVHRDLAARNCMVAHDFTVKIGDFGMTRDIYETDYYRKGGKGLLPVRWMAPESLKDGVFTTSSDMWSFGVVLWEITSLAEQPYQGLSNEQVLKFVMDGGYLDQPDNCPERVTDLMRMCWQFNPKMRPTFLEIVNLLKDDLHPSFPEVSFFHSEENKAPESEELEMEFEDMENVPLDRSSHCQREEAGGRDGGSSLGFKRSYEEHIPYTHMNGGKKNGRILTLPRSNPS

Sequence of insulin (P01308 90-110): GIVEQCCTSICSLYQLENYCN

For orientation: Kd means the concentration at which binding is half-saturated. Consider insulin (from UniProt P01308), for which the Kd is 28 nM.
